Sequences and labels used below:
B1: HA-1^H TCR M7 (TCR, V domains shown)
Valpha: GQQVMQIPQYQHVQEGEDFTTYCNSSTTLSNIQWYKQRPGGHPVFLIQLVKSGEVKKQKRLTFQFGEAKKNSSLHITATQTTDVGTYFCAGNTGGFKTIFGAGTRLFVKA
Vbeta: DTGVSQDPRHKITKRGQNVTFRCDPISEHNRLYWYRQTLGQGPEFLTYFQNEAQLEKSRLLSDRFSAERPKGSFSTLEIQRTEQGDSAMYLCASSLLGNQPQHFGDGTRLSIL
B2: Chimeric HA-1 TCR: M7 TCR alpha chain (TRAV25*01) with M2 TCR beta chain (TRBV7-9) (TCR, V domains shown)
Valpha: GQQVMQIPQYQHVQEGEDFTTYCNSSTTLSNIQWYKQRPGGHPVFLIQLVKSGEVKKQKRLTFQFGEAKKNSSLHITATQTTDVGTYFCAGNTGGFKTIFGAGTRLFVKA
Vbeta: DTGVSQNPRHKITKRGQNVTFRCDPISEHNRLYWYRQTLGQGPEFLTYFQNEAQLEKSRLLSDRFSAERPKGSFSTLEIQRTEQGDSAMYLCASLTVQNTEAFFGQGTRLTVV
B3: HA-1^H TCR M2 (TCR, V domains shown)
Valpha: GENVEQHPSTLSVQEGDSAVIKCTYSDSASNYFPWYKQELGKRPQLIIDIRSNVGEKKDQRIAVTLNKTAKHFSLHITETQPEDSAVYFCAARNSGAGSYQLTFGKGTKLSVIP
Vbeta: DTGVSQNPRHKITKRGQNVTFRCDPISEHNRLYWYRQTLGQGPEFLTYFQNEAQLEKSRLLSDRFSAERPKGSFSTLEIQRTEQGDSAMYLCASLTVQNTEAFFGQGTRLTVV
B4: HA-1-TCR of clone M7 (M7 TRBV7-9 with M7 TRAV25*01), unmodified (TCR, V domains shown)
V domain 1: GQQVMQIPQYQHVQEGEDFTTYCNSSTTLSNIQWYKQRPGGHPVFLIQLVKSGEVKKQKRLTFQFGEAKKNSSLHITATQTTDVGTYFCAGNTGGFKTIFGAGTRLFVKA
V domain 2: GVSQDPRHKITKRGQNVTFRCDPISEHNRLYWYRQTLGQGPEFLTYFQNEAQLEKSRLLSDRFSAERPKGSFSTLEIQRTEQGDSAMYLCASSLLGNQPQHFGDGTRLSILE
notes: Expressed on transduced T cells; also called HA-1^H TCR M7; HA-1-TCR WT
B5: HA-1-TCR of clone M2 (M2 TRBV7-9 with M2 TRAV13-1*02) (TCR, V domains shown)
V domain 1: GENVEQHPSTLSVQEGDSAVIKCTYSDSASNYFPWYKQELGKRPQLIIDIRSNVGEKKDQRIAVTLNKTAKHFSLHITETQPEDSAVYFCAARNSGAGSYQLTFGKGTKLSVIP
V domain 2: DTGVSQNPRHKITKRGQNVTFRCDPISEHNRLYWYRQTLGQGPEFLTYFQNEAQLEKSRLLSDRFSAERPKGSFSTLEIQRTEQGDSAMYLCASLTVQNTEAFFGQGTRLTVVE
notes: Expressed on transduced peripheral T cells; also called HA-1^H TCR M2
B6: Chimeric TCR: M2 TRBV7-9 beta chain with M7 TRAV25*01 alpha chain (TCR, V domains shown)
V domain 1: GQQVMQIPQYQHVQEGEDFTTYCNSSTTLSNIQWYKQRPGGHPVFLIQLVKSGEVKKQKRLTFQFGEAKKNSSLHITATQTTDVGTYFCAGNTGGFKTIFGAGTRLFVKA
V domain 2: DTGVSQNPRHKITKRGQNVTFRCDPISEHNRLYWYRQTLGQGPEFLTYFQNEAQLEKSRLLSDRFSAERPKGSFSTLEIQRTEQGDSAMYLCASLTVQNTEAFFGQGTRLTVVE
notes: The entries include the leader

One assay addresses T1, HA-1^H, minor histocompatibility antigen encoded by HMHA1 (Rho GTPase-activating protein 45), R139H … (human).
T1 peptide: VLHDDLLEA
Nature of the assay: multimer staining.
Consider B1, for which the binding result is “recognises”.

Regarding B2, the binding result was “recognises”.

Regarding B3, the binding result is recorded as “recognises”.

A further assay has as its target T2, HA-1 pMHC tetramer (human).
T2 construct: also called HA-1 tetramer; HA-1-tetramer
Nature of the assay: HA-1 pMHC tetramer staining of peripheral T cells transduced with the TCR chains, flow cytometry. In general terms: A flow cytometer gives signals particle by particle.
Regarding B4, the “MFI of HA-1 pMHC tetramer” value stood at 33.8 MFI.

B5: the “MFI of HA-1 pMHC tetramer” value worked out at 24.2 MFI.

For B6, the “MFI of HA-1 pMHC tetramer” value turned out to be 32.6 MFI.

The values are drawn from patent US20210380656A1 (ACADEMISCH ZIEKENHUIS LEIDEN H O D N LUMC, published 2021).
